Data published in patent US20260209317A1 (US Dept. of Health and Human Services, published 2026).
Where two headings read alike, the source gives them in different places.

What was measured:
[1] = target: SARS-CoV-2 omicron-BA.1 RBD protein (SARS-CoV-2, UniProt P0DTC2 319-541)
[2] = target: T1, SARS-CoV-2 Omicron BJ.1 spike protein (on pseudotyped lentivirus) (SARS-CoV-2, UniProt P0DTC2 14-1273); assay: cell-based or functional assay
[3] = target: T2, SARS-CoV-2 D614G spike protein (on pseudotyped lentivirus) (SARS-CoV-2, UniProt P0DTC2 14-1273); assay: cell-based or functional assay
[4] = target: T3, SARS-CoV-2 Omicron BA.2 spike protein (on pseudotyped lentivirus) (SARS-CoV-2); assay: cell-based or functional assay
[5] = target: T4, SARS-CoV-2 Omicron BQ.1.1 spike protein (on pseudotyped lentivirus) (SARS-CoV-2, UniProt P0DTC2 14-1273); assay: cell-based or functional assay
[6] = target: T5, SARS-CoV-2 Omicron BA.2.75.2 spike protein (on pseudotyped lentivirus) (SARS-CoV-2); assay: cell-based or functional assay
[7] = target: T6, SARS-CoV-2 Omicron BA.4/BA.5 spike protein (on pseudotyped lentivirus) (SARS-CoV-2, UniProt P0DTC2 14-1273); assay: cell-based or functional assay
[8] = target: T7, SARS-CoV-2 Omicron BA.4.6 spike protein (on pseudotyped lentivirus) (SARS-CoV-2); assay: cell-based or functional assay
[9] = target: T8, SARS-CoV-2 Omicron XBB spike protein (on pseudotyped lentivirus) (SARS-CoV-2, UniProt P0DTC2 14-1273); assay: cell-based or functional assay
[10] = target: T9, SARS-CoV-2 P.1 spike protein (on pseudotyped lentivirus) (SARS-CoV-2); assay: cell-based or functional assay
[11] = target: T10, SARS-CoV-2 B.1.1.7 spike protein (on pseudotyped lentivirus) (SARS-CoV-2); assay: cell-based or functional assay
[12] = target: T11, SARS-CoV-2 B.1.617.2 spike protein (on pseudotyped lentivirus) (SARS-CoV-2); assay: cell-based or functional assay
[13] = target: T12, SARS-CoV-2 Omicron BA.2.75 spike protein (on pseudotyped lentivirus) (SARS-CoV-2, UniProt P0DTC2 14-1273); assay: cell-based or functional assay
[14] = target: T13, SARS-CoV-2 B.1.351 spike protein (on pseudotyped lentivirus) (SARS-CoV-2); assay: cell-based or functional assay
[15] = target: T1, SARS-CoV-2 Omicron BJ.1 spike protein …; assay: cell-based or functional assay; remark: listed apart in the source
[16] = target: T2, SARS-CoV-2 D614G spike protein (on …); assay: cell-based or functional assay; remark: listed apart in the source
[17] = target: T3, SARS-CoV-2 Omicron BA.2 spike protein …; assay: cell-based or functional assay; remark: listed apart in the source
[18] = target: T4, SARS-CoV-2 Omicron BQ.1.1 spike protein …; assay: cell-based or functional assay; remark: listed apart in the source
[19] = target: T5, SARS-CoV-2 Omicron BA.2.75.2 spike …; assay: cell-based or functional assay; remark: listed apart in the source
[20] = target: T6, SARS-CoV-2 Omicron BA.4/BA.5 spike …; assay: cell-based or functional assay; remark: listed apart in the source
[21] = target: T7, SARS-CoV-2 Omicron BA.4.6 spike protein …; assay: cell-based or functional assay; remark: listed apart in the source
[22] = target: T8, SARS-CoV-2 Omicron XBB spike protein …; assay: cell-based or functional assay; remark: listed apart in the source
[23] = target: T9, SARS-CoV-2 P.1 spike protein (on …); assay: cell-based or functional assay; remark: listed apart in the source
[24] = target: T10, SARS-CoV-2 B.1.1.7 spike protein (on …); assay: cell-based or functional assay; remark: listed apart in the source
[25] = target: T11, SARS-CoV-2 B.1.617.2 spike protein (on …); assay: cell-based or functional assay; remark: listed apart in the source
[26] = target: T12, SARS-CoV-2 Omicron BA.2.75 spike …; assay: cell-based or functional assay; remark: listed apart in the source
[27] = target: T13, SARS-CoV-2 B.1.351 spike protein (on …); assay: cell-based or functional assay; remark: listed apart in the source

B1: B2-269.1 (antibody, V domains shown)
VH: EVQLVESGGGLVQPGGSLRLSCAASGITVSSNYMSWVRQPPGKGLDWVSLIFSGGSTYYADSVKGRFTISRDNSKNTLYLQMNSLRAEDTAVYYCARVGVAVAGTDYDIWGQGTMVTVSS
VL: DIQMTQSPSSLSASVGDRVTITCQASQDINKYLNWYQQKPGKAPKLLIYDASNLETGVPSRFSGSGSGTDFTFTISSLQPEDIATYYCLHYENLPLSFGGGTKVEIK
EC50 (read off the curve) [1]: ~0.04 µg/mL
neutralization IC50 [2]: < 0.1 µg/mL
neutralization IC50 [3]: < 0.1 µg/mL
neutralization IC50 [4]: < 0.1 µg/mL
neutralization IC50 [5]: < 0.1 µg/mL
neutralization IC50 [6]: < 1.1 µg/mL
neutralization IC50 [7]: < 0.1 µg/mL
neutralization IC50 [8]: < 0.1 µg/mL
neutralization IC50 [9]: < 1.1 µg/mL
neutralization IC50 [10]: < 0.1 µg/mL
neutralization IC50 [11]: < 0.1 µg/mL
neutralization IC50 [12]: < 0.1 µg/mL
neutralization IC50 [13]: < 1.1 µg/mL
neutralization IC50 [14]: < 0.1 µg/mL
neutralization IC50 [15]: 0.001 µg/mL
neutralization IC80 [15]: 0.008 µg/mL
neutralization IC50 [16]: 0.017 µg/mL
neutralization IC80 [16]: 0.039 µg/mL
neutralization IC50 [17]: 0.01 µg/mL
neutralization IC80 [17]: 0.032 µg/mL
neutralization IC50 [18]: 0.126 µg/mL
neutralization IC80 [18]: 0.576 µg/mL
neutralization IC50 [19]: 0.709 µg/mL
neutralization IC80 [19]: 2.5 µg/mL
neutralization IC50 [20]: 0.013 µg/mL
neutralization IC80 [20]: 0.036 µg/mL
neutralization IC50 [21]: 0.011 µg/mL
neutralization IC80 [21]: 0.031 µg/mL
neutralization IC50 [22]: 0.179 µg/mL
neutralization IC80 [22]: 3.56 µg/mL
neutralization IC50 [23]: 0.01 µg/mL
neutralization IC80 [23]: 0.025 µg/mL
neutralization IC50 [24]: 0.02 µg/mL
neutralization IC80 [24]: 0.034 µg/mL
neutralization IC50 [25]: 0.028 µg/mL
neutralization IC80 [25]: 0.054 µg/mL
neutralization IC50 [26]: 1.14 µg/mL
neutralization IC80 [26]: 3.54 µg/mL
neutralization IC50 [27]: 0.007 µg/mL
neutralization IC80 [27]: 0.022 µg/mL
